Measured values: patent US20230295259A1 (Protagonist Therapeutics, Inc., priority 2020, published 2023)
Starred links: 1 amine or outer side, 2 acyl side, 3 side chain; linkers in the order of their positions; H or OH if unused. Positions of bridges follow the written chain, without caps; N, C: chain ends. Non-standard residues stand in square brackets, D forms with d. Groups on a side chain read outwards from the residue. *: point of attachment. Glu(OMe) = COC(=O)CC[C@H](N[*:1])C(=O)[*:2]; C18 diacid = O=C(O)CCCCCCCCCCCCCCCCC(=O)*; Dip = N[C@H](C(=O)O)C(c1ccccc1)c1ccccc1; Palmitoyl = CCCCCCCCCCCCCCCC(=O)*; β3hF = N[C@H](CC(=O)O)Cc1ccccc1; Cha = N[C@@H](CC1CCCCC1)C(=O)O; Tle = CC(C)(C)[C@H](N)C(=O)O; hLeu = CC(C)CC[C@H](N)C(=O)O; Isovaleryl = CC(C)CC(=O)*; Ac6c = NC1(C(=O)O)CCCCC1; Dap = NC[C@H](N)C(=O)O; AEEA = NCCOCCOCC(=O)O; Ahx = NCCCCCC(=O)O

T1: human ferroportin (SLC40A1) fused in frame with GFP, stably expressed in HEK293 cells (human, UniProt Q9NP59 1-571)
T1 sequence (looked up): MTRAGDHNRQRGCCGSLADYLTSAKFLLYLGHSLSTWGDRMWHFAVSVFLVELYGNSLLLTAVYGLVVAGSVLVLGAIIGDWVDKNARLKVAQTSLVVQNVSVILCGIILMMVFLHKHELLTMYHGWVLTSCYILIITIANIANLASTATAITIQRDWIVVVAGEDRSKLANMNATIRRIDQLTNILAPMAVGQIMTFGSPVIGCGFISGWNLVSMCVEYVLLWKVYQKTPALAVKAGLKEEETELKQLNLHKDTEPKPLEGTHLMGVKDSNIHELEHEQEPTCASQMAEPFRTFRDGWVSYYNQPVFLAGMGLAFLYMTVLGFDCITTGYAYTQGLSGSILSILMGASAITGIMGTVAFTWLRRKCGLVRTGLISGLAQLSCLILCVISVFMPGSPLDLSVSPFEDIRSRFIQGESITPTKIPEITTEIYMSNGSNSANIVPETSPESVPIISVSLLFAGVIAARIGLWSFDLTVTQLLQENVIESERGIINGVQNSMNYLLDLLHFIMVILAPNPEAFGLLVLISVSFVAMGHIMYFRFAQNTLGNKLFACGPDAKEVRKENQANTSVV


Target: T1, human ferroportin (SLC40A1) fused in …
Experiment: cell-based or functional assay

Binder | IC50: FPN internalisation [nM]
XETHXPCIXXXXC ([Isovaleric Acid]-E-T-H-[Dpa]-P-C-I-[Lys(Ac)]-[bhPhe]-[Lys(Ahx_Palm)]-[(D)Arg]-C-NH2) [Seq. No. 476] | 1760
Isovaleryl-[Glu(OMe)]TH[Dip]PC[Ac6c]K([AEEA-AEEA-Dap-C18 diacid])[β3hF][dK]C-NH2 (disulfide 6-11 (inferred)) [Seq. No. 512] | 37.4
XXTHXPCIXXXC ([Isovaleric Acid]-[Glu(OMe)]-T-H-[Dpa]-P-C-I-[Lys(PEG12_PEG12_Dap_C18_Diacid)]-[bhPhe]-[(D)Lys]-C-NH2) [Seq. No. 519] | 24.7
XETXXPCIXXXC ([Isovaleric Acid]-E-T-[3Quin]-[Dpa]-P-C-I-[Lys(1PEG2_1PEG2_Dap_C18_Diacid)]-[bhPhe]-[(D)Lys]-C-NH2) [Seq. No. 479] | 475
XXTHXPCIXXXC ([Isovaleric Acid]-[Glu(OMe)]-T-H-[Dpa]-P-C-I-[Lys(PEG12_Dap_C18_Diacid)]-[bhPhe]-[(D)Lys]-C-NH2) [Seq. No. 520] | 19.9
Isovaleryl-[Glu(OMe)]TH[Dip]PC[Tle]K([AEEA-AEEA-Dap-C18 diacid])[β3hF][dK]C-NH2 (disulfide 6-11 (inferred)) [Seq. No. 514] | 13.6
XXTHXPCIXXXXC ([Isovaleric Acid]-[Glu(OMe)]-T-H-[Dpa]-P-C-I-[(D)Lys]-[bhPhe]-[Lys(DMG_N_2ae_Palm)]-[(D)Lys]-C-NH2) [Seq. No. 526] | 28.1
XEXHXPCIXXXC ([Isovaleric Acid]-E-[Dab]-H-[Dpa]-P-C-I-[Lys(1PEG2_1PEG2_Ahx_C18_Diacid)]-[bhPhe]-[(D)Lys]-C-NH2) [Seq. No. 546] | 53.6
XXTHXPCIXXXC ([Isovaleric Acid]-[Glu(OMe)]-T-H-[Dpa]-P-C-I-[Lys(1PEG2_1PEG2_Dap_C18_Diacid)]-[Igl]-[(D)Lys]-C-NH2) [Seq. No. 522] | 19.2
XETYXPCIXXXC ([Isovaleric Acid]-E-T-Y-[Dpa]-P-C-I-[Lys(1PEG2_1PEG2_Dap_C18_Diacid)]-[bhPhe]-[(D)Lys]-C-NH2) [Seq. No. 477] | 246
Isovaleryl-[Glu(OMe)]TH[Dip]PC[hLeu]K([AEEA-AEEA-Dap-C18 diacid])[β3hF][dK]C-NH2 (disulfide 6-11 (inferred)) [Seq. No. 515] | 12.5
XETHXPCIXXXC ([Isovaleric Acid]-E-T-H-[Dpa]-P-C-I-[Lys(1PEG2_1PEG2_IsoGlu_C18_Diacid)]-[bhPhe]-[(D)Lys(Carnitine)]-C-NH2) [Seq. No. 543] | 13.2
Isovaleryl-ETH[Dip]PCI[dK][β3hF]K([Ahx-Palmitoyl])[dR]C[dR]-NH2 (disulfide 6-12 (inferred)) [Seq. No. 474] | 54.6
XXTHXPCIXXXC ([Isovaleric Acid]-[Glu(OMe)]-T-H-[Dpa]-P-C-I-[Lys(PEG12_DMG_N_2ae_Palm)]-[bhPhe]-[(D)Lys]-C-NH2) [Seq. No. 530] | 37.4
XXTXXPCIXXXC ([Isovaleric Acid]-[Glu(OMe)]-T-[4Pal]-[Dpa]-P-C-I-[Lys(1PEG2_1PEG2_Ahx_C18_Diacid)]-[bhPhe]-[(D)Lys]-C-NH2) [Seq. No. 496] | 10.6
XXTHXPXIXXXC ([Isovaleric Acid]-[Glu(OMe)]-T-H-[Dpa]-P-[(D)Cys]-I-[Lys(PEG2_1PEG2_DMG_N_2ae_C18_Diacid)]-[bhPhe]-[(D)Lys]-C-NH2) [Seq. No. 495] | 14.9
Isovaleryl-ETH[Dip]PCI[dK][β3hF]K([Ahx-Palmitoyl])[dR]C-NH2 (disulfide 6-12 (inferred)) [Seq. No. 475] | 42.8
Isovaleryl-[Glu(OMe)]TH[Dip]PC[Cha]K([AEEA-AEEA-Dap-C18 diacid])[β3hF][dK]C-NH2 (disulfide 6-11 (inferred)) [Seq. No. 511] | 16.9
Isovaleryl-[Glu(OMe)]TH[Dip]PCIK([AEEA-AEEA-Dap-C18 diacid])[hLeu][dK]C-NH2 (disulfide 6-11 (inferred)) [Seq. No. 509] | 20.6
XETHXPCIXXXC ([Isovaleric Acid]-E-T-H-[Dpa]-P-C-I-[Lys(PEG12_Dap_C18_Diacid)]-[bhPhe]-[(D)Lys]-C-NH2) [Seq. No. 517] | 9.58
XEXHXPCIXXXXC (not fully specified; [Isovaleric Acid]-E-[Dap]-H-[Dpa]-P-C-I-[(D)Lys]-[bhPhe]-[Lys(Ahx_Palm)]-[(D)Lys]-C-NH2) [Seq. No. 549] | 50.8
Isovaleryl-[Glu(OMe)]TH[Dip]PCI[dK][β3hF]K([Ahx-Palmitoyl])[dR]C-NH2 (disulfide 6-12 (inferred)) [Seq. No. 501] | 39.9
XXTHXPCIXXXXC ([Isovaleric Acid]-[Glu(OMe)]-T-H-[Dpa]-P-C-I-[(D)Lys]-[bhPhe]-[Lys(Ahx_DMG_N_2ae_Palm)]-[(D)Lys]-C-NH2) [Seq. No. 528] | 32.4
XXTHXPCIXXXC ([Isovaleric Acid]-[Glu(OMe)]-T-H-[Dpa]-P-C-I-[Lys(1PEG2_1PEG2_Dap_C18_Diacid)]-[Phe(4-COOH)]-[(D)Lys]-C-NH2) [Seq. No. 503] | 180
XXTHXPCIXXXC ([Isovaleric Acid]-[Glu(OMe)]-T-H-[Dpa]-P-C-I-[Lys(1PEG2_1PEG2_Dap_C18_Diacid)]-[Hph]-[(D)Lys]-C-NH2) [Seq. No. 508] | 24.2
XETHXPCIXXXC ([Isovaleric Acid]-E-T-H-[Dpa]-P-C-I-[Lys(PEG2_1PEG2_DMG_N_2ae_C18_Diacid)]-[bhPhe]-[(D)Lys]-C-NH2) [Seq. No. 544] | 9.26
